Measured values: paper PMC10228794

The substances below were run against 10.17DT SOSIP (assay: SPR). Conditions: mutated DH270 UCA antibodies were injected at 100nM; 3000–4000 RUs of 10.17DT on the sensor chip; parent: est. 43; read off a plot.

Row | Substance | response
1 | DH270 UCA IgG (unmutated common ancestor of bnAb DH270.6) I102D | 6.5 RU
2 | DH270 UCA IgG (unmutated common ancestor of bnAb DH270.6) I102L | 29 RU
3 | DH270 UCA IgG (unmutated common ancestor of bnAb DH270.6) I102N | 43 RU
4 | DH270 UCA IgG (unmutated common ancestor of bnAb DH270.6) I102S | 34 RU
5 | DH270 UCA IgG (unmutated common ancestor of bnAb DH270.6) I102V | 54 RU
6 | DH270 UCA IgG (unmutated common ancestor of bnAb DH270.6) W101F | 36 RU
7 | DH270 UCA IgG (unmutated common ancestor of bnAb DH270.6) W101G | 3.5 RU
8 | DH270 UCA IgG (unmutated common ancestor of bnAb DH270.6) W101R | 0 RU
9 | DH270 UCA IgG (unmutated common ancestor of bnAb DH270.6) W101Y | 15 RU
10 | DH270 UCA IgG (unmutated common ancestor of bnAb DH270.6) Y111F | 38 RU
11 | DH270 UCA IgG (unmutated common ancestor of bnAb DH270.6) Y111H | 25 RU
12 | DH270 UCA IgG (unmutated common ancestor of bnAb DH270.6) Y111N | 0 RU
13 | DH270 UCA IgG (unmutated common ancestor of bnAb DH270.6) Y111W | 26 RU
